# Values of other authors as cited in publication PMC4271544.
# pKd: −log10 of the molar value.
# Molecular target: Capping protein (CP) (Homo sapiens) (UniProt P52907)
substance,measurement,value
V-1 (myotrophin) (from UniProt P58546),pKd,7.40
